Laboratory results taken from patent US11680267B2, “Co-regulatory sequences based on tetracycline and Cumate” (Shenzhen Eureka Biotechnology Co., Ltd., priority 2020, dated 2023).

Tested on: 293T-rtTAadv-CymR cells
Test: Luciferase assay, transient transfection, DOX and Cumate vs no inducer (Example 3), rtTAadv cells
Format: cell-based
Description: 293T cells were seeded at 1.5E+06 cells per 60 mm culture dish, and cultured in DMEM (Sigam, D6429) complete medium supplemented with 10% FBS (ExCell, 11H116) at 37° C. and 5% CO 2. After 24 hours of culture, transfection was carried out according to the PEI method. During transfection, 500 μL of transfection reagent which contained 5.5 ug of total plasmid was added to each 60 mm culture dish, and the mass ratio of total plasmid to PEI MAX (Polysciences, 24765-1) was 1:4. The transfection was carried out according to the PEI method, wherein the amount of total plasmid was 5.5 μg. The transfection was performed with plasmids 19BF074:18BF019 at a molar ratio of 10:1 to obtain 293T-rtTAadv-CymR cells; and the transfection was performed with plasmids 19BF075:18BF019 at a molar ratio of 10:1 to obtain 293T-rtTA3G-CymR cells. The plasmid and PEI MAX were mixed uniformly, and then put into a culture dish after standing for 15 minutes. 3 hours after transfection, the medium was changed to a complete DMEM medium, and the transfection operation was completed. After 24 hours of transfection, the cells were digested with trypsin and all seeded in a 100 mm culture dish (Corning, 430167), and 200 μg/ml of hygromycin (Sangon Biotech A600230-0001) drug screening was performed for at least three passages. After the growth of cells under the pressure of drug screening was consistent with that of the original 293T cells, the following experiments were performed.
In Tet-On inducible expression system, the induced transcription activity and the leaky transcription activity were comprehensively affected by the TetO operator linking sequence of the TRE response element and the minimal promoter sequence, as well as different mutants of the transactivator rtTA. In addition, the transport and stability of messenger ribonucleic acid may be enhanced by linking a spliceable intron sequence downstream of the 3′ end of the response element and upstream of the 5′ end of the regulated nucleic acid fragment of interest, but the induced transcription activity and leaky transcription activity of response element of the inducible expression system may also be affected. Based on this, the optimal design scheme of complex response element was determined in this Example based on the induced expression level and the ratio of induced/leaky expression level of Luciferase gene under the combination of the following conditions: (1) Tet-On and Cumate complex response elements TREadvCuO and TRE3GCuO designed based on the TREadv and TRE3G response element sequences; (2) whether an intron was linked; (3) being regulated by the transactivator rtTAadv or rtTA3G. A total of 8 design schemes were compared in this Example: TREadv (18BF232), TREadvCuO (18BF233), TRE3G (18BF234), TRE3GCuO (18BF235), TREadv-BGI (18BF240, wherein the response element was TREadv, and a human β-globulin intron was linked between the 3′ end of the response element and the 5′ end of the Luciferase gene), TREadvCuO-BGI (18BF241, wherein the response element was TREadvCuO, and a human β-globulin intron was linked between the 3′ end of the response element and the 5′ end of the Luciferase gene), TRE3G-BGI (18BF236, wherein the response element was TRE3G, and a human β-globulin intron was linked between the 3′ end of the response element and the 5′ end of the Luciferase gene) and TRE3GCuO-BGI (18BF237, wherein the response element was TRE3GCuO, and a human β-globulin intron was linked between the 3′ end of the response element and the 5′ end of the Luciferase gene). The promoter CMV-BGI (18BF229, wherein the promoter was CMV, and a human β-globulin intron was linked between the 3′ end of the CMV promoter and the 5′ end of the Luciferase gene) was used as a positive control. […]

B1: TRE3GCuO: Tet-On (7xTetO of TRE3G) and Cumate complex response element, CuO 50 bp behind the TATA box (SEQ ID NO: 23) (nucleic acid)
DNA: TCCCTATCAGTGATAGAGAACGTATGAAGAGTTTACTCCCTATCAGTGATAGAGAACGTATGCAGACTTTACTCCCTATCAGTGATAGAGAACGTATAAGGAGTTTACTCCCTATCAGTGATAGAGAACGTATGACCAGTTTACTCCCTATCAGTGATAGAGAACGTATCTACAGTTTACTCCCTATCAGTGATAGAGAACGTATATCCAGTTTACTCCCTATCAGTGATAGAGAACGTATTAGGCGTGTACGGTGGGCGCCTATAAAAGCAGAGCTCGTTTAGTGAACCGTCAGATCGCCTGGAGCAATTCCACATACAAACAGACCAGATTGTCTGTTTGTT
modifications: TRE3GCuO50 response element sequence
increase of induced/leaky expression ratio of TRE3GCuO over TREadvCuO: 16.4%
induced expression level as % of the induced expression level of TRE3G: 50.4%
induced expression level (1 ug/ml DOX and 200 ug/ml Cumate): 3.4E+06 RLU
induced expression level as % of that of the corresponding TRE3G or TREadv single regulatory response element (DOX and Cumate): 50.4%
induced/leaky expression ratio (DOX and Cumate vs no inducer): 1565 times
